In the DeepSol protein solubility set:

test: soluble on expression in E. coli; label from the status in PepcDB or PDB records

Sequence | soluble on expression in E. coli
MPKFVVIELNDDAATIDLLSYCVKKNFERVSLLTRLEDHPYLRDDQDVVQDDTQSQGTDGMLLQLNDEERQRLMKMISTPGPQTLSMERIQMAPGQGQHILQQHQIPSTSSYTNNSFIYIKSDPQYKDEPQQQSNQFDATVNSVAHGQAGLSTLEMFACNGSPNGGDVLRRKTPSRKAEDSIKATCKVCGHDVMYSPQRTWNLMRHVWIMHQSSKPNQCSICGYSHIKPYVRKHIESQHKHDSNATIIDLKSPELEAEWSQLLDQCFGVTYRKWKHHKEDTQHTVFAAGDEDYGHEHHFSPEEDVMTTL | not soluble
MGSDKIHHHHHHMILMRISIKGLGISGLYLYERLKQSGFDVTAFDVRRRDFYIPCAYATNFNLMKPFMSRIGIDFDNYVLFRSETITMSGENGSEIEFPSAGLVTFDRNGLQRDMMNRIEMETETKADLVVDATGISRSYLGRINGDLTYYTKEYLTDHVIHRDFYFLFLNRGVGYLWEFPLDRGHFHVGIGSIRRDDLNRIDRYNRIRITGRRIRMKPLFEVASIGNIVGIGESVGTVSPLTGEGILPSIESAELLYQAISDKSDPNEAIRLYLKKLNTSFSHYYKLSDFVRKVQTGKLLRPSNIRYASLITKDMKHFGIDFSLGKAVRALIQ | not soluble
MDINLEYSLHDTQFFWQALSIRYHHAQRLKQLQRELAGFEQIKKFTLLPEAFSMEAGLITPTLKQRCKMIYHKYAHEINAMYNNLEHHHHHH | not soluble
MSDAPTVVAYLGPAGTFTEEALYKFADAGVFGDGEIEQLPAKSPQEAVDAVRHGTAQFAVVAIENFVDGPVTPTFDALDQGSNVQIIAEEELDIAFSIMVRPGTSLADVKTLATHPVGYQQVKNWMATTIPDAMYLSASSNGAGAQMVAEGTADAAAAPSRAAELFGLERLVDDVADVRGARTRFVAVQAQAA | not soluble
GPGSMELALEAMDAAEPPVSAAEKARRLALLRASSAEEARSLVALHDAAALAELRAAIMDSFPDERHDPEMSVHLDQIIWGRCPIRIDVAGAWTDTPPYAILSGGSVINVAVELNGQPPVQVYVRVREDPIIMMHSIDSGEQLSVSSFDEIRTYATMQNPFSIPKAALALCGFLPEFCATEYATLREQLAARFGGHGLEISLFVAIPTGSGLGTSSIVAGTVLRSLAEFCKLPWDNHDVCRRVLLIEQMLTAGGGWQDQYGGLFEGLKLVQCVPGLPCLPTVRWMPDSVYTDPRFAACHLLYYTGITRMAKGILGEIVRDVLLNNGATLQLLREMGGPTTAAMYDAITTGNYKGYARLVHRTWEQKKRLDDGVCNPTVQSIVDIVEPYVWGLTLPGAGGGGYMYMCAKDEACARRIRELLTANPPNGNARFVEMSVSASGLQISRS | not soluble
MGSDKIHHHHHHMATTTIYEDLSAAYDLENMQALMATKDLLGAMLRIHFILEAFLDIWCNKITNCEDFFDLKRFTSFDTKLEISKKLGLPSELAVVFKLFNKIRNKFAHRPNYVICSNDLDNIHQAINQINTHDNHSKFTMIVFNEREIRWDTPDIPIIDSLLLNYFTLSQKVNDVFANEFSKRNISFTIQGQQA | not soluble
MEFIPPKRMLELIKHYSTTFKNWYSVMLGIYLHRERIKCTLRNGQTLYLTPNEAVLLAGLRIIELDCNTVKFSFNGREITLRGWRLSDPGDSFSDYWRINVKGKRVLDIGAGVGDSSIYFSTMGAKEVVAVEIDKKKIELMRENLRTNGINNVIVVDKGVGTVDNENFISWERLIKDYGPFDDAKIDCDGCERLISPFIKEIPELLIEWDSDYKDVVKNLSKNGYKIRVEHTLKNLGFIYAKRE | soluble
MTSDTIRQTLDELLLDKNGGSSNEARAFFLSQIIDQLKLISSQTDAERQLQKLQLKDPNDNIVKATPPPPPPPPPLISILQQAPPPPPPPPPPTLKAPPPPPILGLKTPSKSLKTPTPRPKECPTSFLPKKEKKTKTRTVQWSKINASVVQDDSVWGKLAKASNVDIDFDLLDNFFGIESLAVSGAAEVVKVGILRALGKNYKKISKKIFNPKKHFFFLLKISNSLNFQKSTRKDAHVELLTAKRSQNVAIMLKQFKNIDELIDDVSQNKPVAEIDALQNLFGMLPQSEEEEALRRYTGDISLLSPPSSFFYRLVQIQFYRLRIETQIFLSDFSRLMRELAPNVEILIRTSQEILTSPTLPRLLLIFVNMGNYLNGNNSQGNAFGFTLNSLWKLIDLKGNKQEFSLLHLLVTCEPDLVAHLQEELSTLKDASQISFDEIKISLKTLRDGRCKLEKQLETCSGASFTQFLELIKIDCKFELDEFGANYDKLTELQYQLADYFCENRNTFQLDECLKIFNFLMNRLQQTLKEHVTRETRKLKKEEKKETQTTRECEKTMKKPEKIDLFDALTASNGGPESPRKRAAGILDMRQKLGNVRIRKLRDVTTLESSFTPPPPPPLESPTDSTSSKENESVKPAKTSTNYEMCNDLESYITSLTRKRASHLPKAPPKEEPKLPEVLPEKSKIALKIEKIPEKIDKPPLPQAAPIIPKLPQKSIKAPSTVTTRSKVPPPTAAAAVRIVSVTTTTTPTKTAELRKPGARSPKTTVATVPKVTVVPVSRVPVAPSTPLSRRMSAPVVRKPTMTAEKKREITMKPSVSTSARPSLINTSSHPMVRSPLPKMSVLEKPKPLRITRPTVIPQSPTVTSSARPSGLRQPAKPKWV | not soluble
GMEKLSAIKKPDINVADAWEQYWNKTLVNSTPVLWDANVERAVVVDLPRFELLFNPELPLIDFACGNGTQTKFLSQFFPRVIGLDVSKSALEIAAKENTAANISYRLLDGLVPEQAAQIHSEIGDANIYMRTGFHHIPVEKRELLGQSLRILLGKQGAMYLIELGTGCIDFFNSLLEKYGQLPYELLLVMEHGIRPGIFTAEDIELYFPDFEILSQGEGLFQSIHKLPDGNYATPPAFWAVIKHR | soluble
MGSDKIHHHHHHMIHKLADVQSQNIGDNTKVWQFCVILAGAVIGRNCNICANSLIENDVVIGDNVTIKSGVQIWDGIHIQDDVFIGPNVTFTNDKQPRSKIYPDEYLKTIVKKGASIGANSTILPGILIGENAMVGAGAVITKNVPDNAIVIGNPGRITGYVEANTGVIMPSNNFELKLQMSKVKGVSLHKFHLVNDLRGNLSVGEFEKDIPFTPKRYFTVFGVPNKEVRGEHAHKECKQFLICVSGNCSVLVDDGENREEYVLDSIDKGIYLPPMTWGVQYKYSKDAVLLVFASHYYDSDDYIRDYSTFKQMRQN | not soluble
MGSDKIHHHHHHMTVTDLSKKPLLLLDHVTMQFGGLVAVDDFTNEIREGELVGLIGPNGAGKTTVFNVITGIYTPTKGRIVFNDIDITGLRPYQITHLGIARTFQNIRLFSDMTVLENVLVAQHHVLSNPDADRILVKHGKPRKGHGRFWFWRAVTKIGYLKKEKEMVERAKDLIKRVGLEKVMYEKASSLPYGEQRKLEIARALATEPKLILLDEPAAGMNPKETEDLMEFIKQIRKDFNLTVLLIEHDMKVVMGICERIIVMDYGRIIAEGTPKEIQNDPRVIEAYLGREWESV | not soluble
SISKEEILKPIWYAFTALDLDRNGKVSKSQLKVLSHNLCTILKIPHNTSALEEHFKDDDEGPVSTQGYMPYLNTFILSKIQPNFDFVELNKMCWTLSAPKHINTMNLLMSEKDAFRVWCIFNFLSEDKYPLTIVTEELEYFLRKLLTAMGCSWNEGRFEDYKMHLNAKTWKHKVSKHEGLLKLVQPGGKTPSKMTNWGQAAFTESELNELEKMWQVNKNRSEEE | soluble
MILLIDNYDSFVFNVKSMLEQLSNDEILVRRNDAISLSEIKNLNPTHIILSPGPKHPSQSGICLEIFKARLNIPVLGICLGHQALALAFDSLVVKMQEPMHAKNSLIKQCRENELFSNLPSNFSVMRYHSLEVKQLSDELEILALDEKGVIMALGHKNLPYYGVQFHPESYFSEYGLQLFSNFLKQDIKKPQKQENPLSFYLQKMSENHFLQSDDFEQICKIIMSKDYEILQVVALLILITEKSLNEKSLSAFVRQILRYSQTFSDESEMIDICGTGGDGFKSINVSTTSAFILAALGVKVAKHGNRAISSSSGSTDVLEALNITTPNTLESVLKQLNNQGLSFLHAPFFHPLVGELKEIRSRLGVRTVFNVLGPLLHPNLKLKYQLMGNYHAPVHRLLIEVLKNLGRKKALVVRGNDGMDELSICDESKIYELCEGEILEYSICPEQFGFKRAFHSEIIGSSAYDNAKDLKDILSGRMQGAKFDLVVLNAMFALYTANKASSPLVAKDMILEAIYSGKVIEYFKEYQAYAKA | not soluble
MPGYYKISHSWEYRRRTCQDDVLLEAVITSDTNLNTEKTLLQWLNDKNKNKGTNTVDYKDITCWYYGGVWLHYAINNNALSLYMHSSGEDAFDSLNYCAYEIAKTFYKNHSDISILWIEHPHKRNKLKET | not soluble
MGSDKIHHHHHHMKTIEVLSLRKYFPIRKGFLVKKIVGYVKAVDDISFSVEKGKTFALVGESGCGKTTTAKTILRLTNPTAGRVVIDGDDTTYYFMKRRDAENYLETTYVDIFREMREKLSPDQIVDVLEDVDKKYAEIFFKEAKESEEKFYQILLDDIDEKRMKFRRKIQIVFQDPMSSLNPRMTVGDILTEPILFHGLAKTREEAVDMAKDLLKSVGLKEYHLERYPHQFSGGQRQRIAIARAISINPEIVILDEPTASLDVSVQAQVINLFLKLQEEKGFTYLFISHDLGLVRFISHEVGIMYLGRIVEMGNTDEIFDNPLHPYTQALLSAVPVPDPKVERTRKRIILRGGVPSPINRPTGCFFHPRCPYKMPVCEKEYPVMKEISPGHWVACHLHSS | not soluble
MIAGYIMAAENQTLNQWTINQLGITRGDSILEVGFGPGYCMQQMLKREKDVHLHGIDVSEAMLKLAARRVKPKGVRLIQGSIETFPLPASFYDKVISVNNYTIWNDQTKGIKQIYRALKPGGKAAITMQPREADASPEKTKSFGRQMIADFKAAGFEDIDIQFKNIKPELSVCATAKKPATLEHHHHHH | not soluble
MRNMKSTSHESESGKLLSISSCRPREMVLQRYSLGMTVTADRHLADKREEFAVEDISTGIFASGYGQVGDGRSFSFHIEHRSLVVEIYRPRVAGPVPQAEDVVAMAVRGLVDIDLTDERSLAAAVRDSVASAAPVSR | not soluble
MNALARRAAGLLLGTLCLPLAAFAADVQPTHEFILDNGLKVVVREDHRAPVVVSQIWYKVGSSYETPGQTGLSHALEHMMFKGSAKVGPGEASRILRDLGADENAFTSDDYTAYYQVLARDRLPVALELEADRLASLRLPADEFSREIEVIKEERRLRTDDQPNAKAFELFRAMAYPASGYHTPTIGWMADLERMKVEELRHWYESWYAPNNATLVVVGDVTADEVKGLAQKYFGNIPKRA | not soluble
MGDGISETIDAFHRGRFHIIQPKGRGHRAGMDAMLLASLVADDRACRIADLGAGAGAAGMAVAARLEKAEVTLYERSQEMAEFARRSLELPDNAAFSARIEVLEADVTLRAKARVEAGLPDEHFHHVIMNPPYNDAGDRRTPDALKAEAHAMTEGLFEDWIRTASAIMVSGGQLSLISRPQSVAEIIAACGSRFGGLEITLIHPRPGEDAVRMLVTAIKGSRARLTFRAPLIMHET | soluble
MGSDKIHHHHHHMLPALWVAKTGLSAQDTNLTVISNNLANVSTTGFKRDRAEFADLLYQIKRQPGAQSTQDSELPSGLQVGTGVRIVGTQKSFVAGSLQTTDNPLDMAVNGRGFFQILQPDGTVSYTRDGTFHLNSDGQIVTDNGYALEPAIVVPNDAQTFTVGQDGTVSITTAGNPAAQVIGNIQTADFINPAGLQAIGDNLFLETAASGAPQVGTPGLNGFGTTLQQTLENSNVSTVEELVNMITTQRAYEMNSKVISTADQMLSFVTQQL | not soluble
MGSDKIHHHHHHMKGKHKIVVKNNRLHYEFEIKRNITIIKGDSATGKTTLINMIRQFANLGNASGIEIECDAPCTVLEGNLWQMLLKNLSGNIIFIDEENQFIRQQEFAELVKASDNYFVIITRENLYNLPYSVEEIYGLYSSGKYQNTKQIYQEMYHIYPLNQDLSCKPDKIIVEDTNSGYEYFKAISKEKNIVCESAGGKTKIFAMLEQLKAETESICVIADGAAIGPEMDALYKMSVEKGNIKLYLPESFEWIILSSELLEDKEIKDIIDKPENYIESQEYFSWERFFTKLLVDKTAGTYLKYQKGKLNPTYLHEKNKNIILKNIKNSIDF | not soluble
